Legend:
[1] = target: human LOX1 on cells (human LOX1 transfected CHO TREX cells; endogenous on HAECs) (human) (UniProt P78380); assay: cell-based or functional assay
[2] = target: human LOX1 on cells (human LOX1 transfected CHO TREX cells; endogenous on HAECs) (human) (UniProt P78380); assay: row label missing; by the order of Table 5 taken as oxLDL/hLOX1 CHO competition (FMAT, DyLight 649 oxLDL as competitor), Mean
[3] = target: human LOX1 on cells (human LOX1 transfected CHO TREX cells; endogenous on HAECs) (human) (UniProt P78380); assay: row label missing; by the order of Table 5 taken as AGE BSA/hLOX1 CHO competition (FMAT, DyLight 649 AGE-BSA as competitor), Mean
[4] = target: human LOX1 SNP K167N variant on transfected CHO TREX cells (human) (UniProt P78380); assay: row label missing; by the order of Table 5 taken as oxLDL/K167N hLOX1 CHO competition (FMAT, DyLight 649 oxLDL as competitor), Mean
[5] = target: recombinant human LOX1 (R&D Systems) (human) (UniProt P78380); assay: row label missing; by the order of Table 5 taken as CRP/hLOX1 competition (plate assay, biotin CRP as competitor, immobilised recombinant hLOX1), Mean

IC50 (Mean) of oxLDL internalisation in hLOX1 CHO cells; row label missing, taken by the order of Table 5 [1]: 2.85 nM
IC50 (Mean) of oxLDL-dependent ROS generation in hLOX1 CHO cells; row label missing, taken by the order of Table 5 [1]: 10.1 nM
IC50 [2]: 2.2 nM
IC50 [3]: 1.15 nM
IC50 [4]: 1.31 nM
IC50 [5]: 11.1 nM
Substance: 23C11, commercially available mouse anti-LOX-1 antibody
